{"source": "paper PMC10033316", "about": "“Expression of GnT-III decreases chemoresistance via negatively regulating P-glycoprotein expression: Involvement of the TNFR2-NF-κB signaling pathway” (The Journal of Biological Chemistry, 2023)", "biological_target": "the molecule itself", "experiment": "cross-linking; cells without TNFα stimulation, 1 mM BS3 for 30 min at room temperature on whole cells; RIPA lysate, nonreducing SDS-PAGE, anti-Flag blot"}
{"protein": "TNF receptor 2 (TNFR2) with a 3x FLAG tag, overexpressed in K562/ADR cells (bisected N-glycans lacking) (receptor, human, UniProt P20333 23-461, looked up, N-glycosylated; modification by bisected N-glycans on TNFR2 significantly suppressed in K562/ADR cells, TNF receptor 2 (TNFR2), human, cDNA cloned from K562 cells; Same construct as m1; host K562/ADR cells have very low GnT-III; also called TNFR2-Flag; source: K562/ADR cells infected by virus with the CSIV-TRE-RfA-CMV-KT-TNFR2 plasmid, on the cell surface; not shown: 3x FLAG, C-terminal, kept) LPAQVAFTPYAPEPGSTCRLREYYDQTAQMCCSKCSPGQHAKVFCTKTSDTVCDSCEDSTYTQLWNWVPECLSCGSRCSSDQVETQACTREQNRICTCRPGWYCALSKQEGCRLCAPLRKCRPGFGVARPGTETSDVVCKPCAPGTFSNTTSSTDICRPHQICNVVAIPGNASMDAVCTSTSPTRSMAPGAVHLPQPVSTRSQHTQPTPEPSTAPSTSFLLPMGPSPPAEGSTGDFALPVGLIVGVTALGLLIIGVVNCVIMTQVKKKPLCLQREAKVPHLPADKARGTQGPEQQHLLITAPSSSSSSLESSASALDRRAPTRNQPQAPGVEASGAGEARASTGSSDSSPGGHGTQVNVTCIVNVCSSSDHSSQCSSQASSTMGDTDSSPSESPKDEQVPFSKEECAFRSQLETPETLLGSTEEKPLPLGVPDAGMKPS", "values": [{"measurement": "stoichiometry N", "result": 3}]}
